Reference: paper PMC9629490 (Acta Crystallographica. Section D, Structural Biology, 2022)

Target: T1, human SNRNP200^395-2136 (truncated SNRNP200 lacking the first 394 residues) (human, UniProt O75643 395-2136)
T1 construct: In the co-purification with PRPF8^RH-JM the complex was captured on Ni-NTA and the tag was then cut with TEV protease; also called SNRNP200 helicase; source: modified pFL vector; purified, obtained as described previously (Santos et al., 2012); also co-produced with PRPF8^RH-JM in Sf9 cells (baculovirus)
Assay: SEC; analytical SEC, Superdex 200 Increase PC3.2/30, 20 mM Tris-HCl pH 7.5, 250 mM NaCl, 0.5 mM DTT; proteins mixed in equimolar ratios, 30 min on ice; fractions analyzed by SDS-PAGE
Settings: both partners purified

T1 sequence (O75643 395-2136): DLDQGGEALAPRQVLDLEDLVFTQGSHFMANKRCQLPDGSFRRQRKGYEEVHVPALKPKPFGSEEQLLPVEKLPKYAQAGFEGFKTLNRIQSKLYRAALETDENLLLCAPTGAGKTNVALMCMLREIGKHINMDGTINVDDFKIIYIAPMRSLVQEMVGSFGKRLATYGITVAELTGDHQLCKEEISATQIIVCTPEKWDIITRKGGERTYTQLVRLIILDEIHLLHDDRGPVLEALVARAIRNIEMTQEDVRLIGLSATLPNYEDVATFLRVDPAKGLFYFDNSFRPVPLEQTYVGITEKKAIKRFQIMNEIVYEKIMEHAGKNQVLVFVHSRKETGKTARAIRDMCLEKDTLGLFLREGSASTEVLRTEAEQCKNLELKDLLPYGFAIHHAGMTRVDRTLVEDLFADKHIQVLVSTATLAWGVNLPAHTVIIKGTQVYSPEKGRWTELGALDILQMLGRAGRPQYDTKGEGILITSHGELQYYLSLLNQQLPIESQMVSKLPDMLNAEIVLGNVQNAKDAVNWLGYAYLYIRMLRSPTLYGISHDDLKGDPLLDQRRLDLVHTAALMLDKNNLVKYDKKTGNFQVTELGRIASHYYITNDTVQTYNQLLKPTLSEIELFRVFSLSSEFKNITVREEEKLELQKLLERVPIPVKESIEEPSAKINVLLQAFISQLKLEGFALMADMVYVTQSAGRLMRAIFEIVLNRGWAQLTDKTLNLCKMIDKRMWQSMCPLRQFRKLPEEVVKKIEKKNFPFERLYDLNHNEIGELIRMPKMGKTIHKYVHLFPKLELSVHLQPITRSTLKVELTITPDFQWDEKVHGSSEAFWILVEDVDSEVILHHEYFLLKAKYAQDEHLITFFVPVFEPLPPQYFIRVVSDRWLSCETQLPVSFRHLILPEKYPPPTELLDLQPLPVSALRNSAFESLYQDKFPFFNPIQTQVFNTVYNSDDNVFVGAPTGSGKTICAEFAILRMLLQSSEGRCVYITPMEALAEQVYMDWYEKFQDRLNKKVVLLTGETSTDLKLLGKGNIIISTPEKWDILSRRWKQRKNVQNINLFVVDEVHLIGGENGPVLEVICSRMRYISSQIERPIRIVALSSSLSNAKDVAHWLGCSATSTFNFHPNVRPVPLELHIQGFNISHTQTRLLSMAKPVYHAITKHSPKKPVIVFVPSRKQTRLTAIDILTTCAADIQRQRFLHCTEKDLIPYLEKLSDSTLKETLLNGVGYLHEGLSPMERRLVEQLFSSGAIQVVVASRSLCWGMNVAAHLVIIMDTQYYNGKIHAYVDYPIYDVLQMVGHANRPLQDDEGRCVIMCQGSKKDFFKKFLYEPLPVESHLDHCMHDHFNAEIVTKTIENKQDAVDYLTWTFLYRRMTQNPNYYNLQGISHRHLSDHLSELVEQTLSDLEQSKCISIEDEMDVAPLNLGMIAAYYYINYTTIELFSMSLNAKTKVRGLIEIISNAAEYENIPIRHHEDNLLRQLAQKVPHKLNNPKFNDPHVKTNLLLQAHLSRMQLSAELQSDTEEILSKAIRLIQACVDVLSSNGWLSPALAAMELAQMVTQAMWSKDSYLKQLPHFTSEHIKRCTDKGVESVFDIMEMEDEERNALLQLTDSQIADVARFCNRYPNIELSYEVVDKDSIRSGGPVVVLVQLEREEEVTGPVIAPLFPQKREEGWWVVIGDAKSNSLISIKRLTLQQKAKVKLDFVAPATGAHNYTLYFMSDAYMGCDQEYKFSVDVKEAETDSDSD

binding result | Binder
binds | human PRPF8 Jab1/MPN-like domain (PRPF8^JM, residues 2064-2335) (domain or fragment, human PRPF8, Jab1/MPN-like domain, residues 2064-2335; The GST tag is TEV-cleavable; also called PRPF8 JM domain; source: pET-M11 plasmid, codon-optimized synthetic gene; purified, obtained as described previously (Mozaffari-Jovin et al., 2013)) not shown
binds | human PRPF8 C-terminal fragment encompassing the RH and JM domains (PRPF8^RH-JM, residues 1760-2335) (domain or fragment, human PRPF8, C-terminal fragment with the RH and JM domains, residues 1760-2335; no tag is stated for this chain (pIDK donor vector); also called PRPF8^RM-JM; prpf8^1760–2335) not shown
